Tests used:
[1] = target: the molecule itself; test: SEC; Superdex 200, 150 mM NaCl, 10 mM Hepes pH 7.5; tag-free Aro1 purified from C. albicans
[2] = target: the molecule itself; test: crystal structure; Aro1_(SK-DHQase-DHSD), sitting drop, room temperature; four copies in the asymmetric unit
[3] = target: the molecule itself; test: crystal structure; Aro1_(DHQS) with 2 mM NADH and 0.5 mM ZnCl2, sitting drop, room temperature; two copies in the asymmetric unit

B1: full-length C. albicans Aro1 (enzyme, UniProt Q5AME2 1-1551, looked up)
chain: MSIEKVPILGKETIHVGYGIADHIVREVIANLASSTYVIVTDTNMARTPQYSKLTDDFKTNLSEKRPESRLLTYCVSPGENNKNRATKAAVEDFLLQQGCTRDTVILAVGGGVIGDMIGFVAATFMRGVRVVQVPTTLLAMVDSSVGGKTAIDTPLGKNFIGAFHQPEYVFCDVSFLETLPARQFINGMAEVVKTAAIWNEEEFTRLENFSKKFLSVVTSKKPDLQSIKAELVKTVLESVRVKAGVVSSDEKEAGLRNLLNFGHTIGHAIEAVLTPEALHGECVSIGMIKEAELSRYLGILPPVAVARLSKCLVAYGLPVSIDDKEFLKKVGPKRHYVEIDILLKKMAIDKKNDGSKIRCVLLEKIGKCYQLKAHQVSKQDLSFVLTDEVLVHPFTNPPKENIIVPPGSKSISNRALILAALGNGTVRVKNLLHSDDTKHMLDAVASLKGAEISTEDNGETIVVKGNGGNLVTSGEELYLGNAGTASRFLTTVASLVGKSQASDDVILTGNARMQERPIGPLVDALGSNGSEIEYLNKQGSLPLKISAGNGLKGGRIELAATISSQYVSSILMCAPYAKEPVTLALVGGKPISQLYIDMTCAMMKSFGIEVTKSTTEEYTYHIPKGTYKNPSEYVIESDASSATYPLAFAAMTGTSCTIPNIGSSSLQGDAKFAVDVLKPMGCKVEQTTTSTTVTGPPRGHLKPLPHVDMEPMTDAFLTASVVAAVAKGGSSTSITGIANQRVKECNRIEAMVTELAKFGVPANELPDGIEIHGIDIEDLKTPEISKRGVSSYDDHRVAMSFSLLAGLCKEPVLILERSTTGKTWPGWWDILHSKFKIELDGYEPPFNTDKHVDKSSDKSIIVIGMRGTGKSTLSEWLASFLGFKMLDMDKYLEEKLGTGIKSLIKAKGWEYFRQEEAIVAKECFTKFSKGYVLSTGGGIVEGEDARQQLKSYADNGGIVLHLHRDLDETVTFLAADTTRPAYSSEVQEVWLRREKWYHECSNYHFYSSHCSTEDEFNHLRRSFVNYIKLITGAERPVVPAGRSAAVVLTSPDLNEVVGDLESITIGADAVELRVDLFKDTSAEFVAAQIAVIRKHADLPIIYTVRTVSQGGKFPDENVDELKSLLLLGIRLGVAYVDLQLTAPNELIEEISSKKGFTRVIGTYQDINGELKWNNVEWKNKYNQGVSMNADIVRLVGKANSIQDNLDLENFKKQNTLKPLIAFNLGSQGKLSQVLNGTFTPISHKLLPNDEEFLTIGELNQTYFDIGGFTAKKFWVIGSPIEHSRSPNLHNAGYKALNLPYQFGRFEATDVDVVYDNLINKPDFGGLAITMPLKLDIMKFATKLSDAAETIGAVNTLIPIEGGYFGDNTDWVGISNSFIRAGVPPKSSSNGLVVGAGGTSRAAIYALHQMGCAKIYLVNRTAAKLEELVKSFPKDYNLEIVETEQQADKASKVSLAVSCIPADKPLDGEVLKKIERILSNGSEQSAGFKPTLLEASYKPRVTPIMKLTEEQYKWKVIPGVEMLVNQGDRQFKLHTGFTAPYEIIHRAVVEE
notes: Aro1 pentafunctional shikimate pathway multi-enzyme (DHQS, EPSPS, SK, DHQase, DHSD domains), Candida albicans, full length, residues 1-1551; Expressed from the tagged genomic ARO1 alleles under the tetO promoter in C. albicans; the His6TEV tag was removed with TEV protease before SEC and cryo-EM; also called His6TEVAro1; wild-type Aro1; source: C. albicans CaLC6830 …
stoichiometry N [1]: 2

B2: Aro1_(SK-DHQase-DHSD), C. albicans Aro1 residues 845-1,551 (SK, DHQase and DHSD domains) (domain or fragment, UniProt Q5AME2 845-1551, looked up)
chain: PPFNTDKHVDKSSDKSIIVIGMRGTGKSTLSEWLASFLGFKMLDMDKYLEEKLGTGIKSLIKAKGWEYFRQEEAIVAKECFTKFSKGYVLSTGGGIVEGEDARQQLKSYADNGGIVLHLHRDLDETVTFLAADTTRPAYSSEVQEVWLRREKWYHECSNYHFYSSHCSTEDEFNHLRRSFVNYIKLITGAERPVVPAGRSAAVVLTSPDLNEVVGDLESITIGADAVELRVDLFKDTSAEFVAAQIAVIRKHADLPIIYTVRTVSQGGKFPDENVDELKSLLLLGIRLGVAYVDLQLTAPNELIEEISSKKGFTRVIGTYQDINGELKWNNVEWKNKYNQGVSMNADIVRLVGKANSIQDNLDLENFKKQNTLKPLIAFNLGSQGKLSQVLNGTFTPISHKLLPNDEEFLTIGELNQTYFDIGGFTAKKFWVIGSPIEHSRSPNLHNAGYKALNLPYQFGRFEATDVDVVYDNLINKPDFGGLAITMPLKLDIMKFATKLSDAAETIGAVNTLIPIEGGYFGDNTDWVGISNSFIRAGVPPKSSSNGLVVGAGGTSRAAIYALHQMGCAKIYLVNRTAAKLEELVKSFPKDYNLEIVETEQQADKASKVSLAVSCIPADKPLDGEVLKKIERILSNGSEQSAGFKPTLLEASYKPRVTPIMKLTEEQYKWKVIPGVEMLVNQGDRQFKLHTGFTAPYEIIHRAVVEE
notes: Aro1, Candida albicans, residues 845-1551: SK domain (857-1032), linker (1033-1038), DHQase domain (1039-1267), DHSD domain (1268-1551); Four copies in the asymmetric unit; also called Aro1_(SK-DHQ-DHSD); source: E. coli BL21(DE3) Gold, purified (Ni-NTA, TEV cleavage, second Ni-NTA); not shown: His6, N-terminal, cleaved
binding result [2]: binds

B3: Aro1_(DHQS), C. albicans Aro1 residues 1-387 (DHQS domain) (domain or fragment, UniProt Q5AME2 1-387, looked up)
chain: MSIEKVPILGKETIHVGYGIADHIVREVIANLASSTYVIVTDTNMARTPQYSKLTDDFKTNLSEKRPESRLLTYCVSPGENNKNRATKAAVEDFLLQQGCTRDTVILAVGGGVIGDMIGFVAATFMRGVRVVQVPTTLLAMVDSSVGGKTAIDTPLGKNFIGAFHQPEYVFCDVSFLETLPARQFINGMAEVVKTAAIWNEEEFTRLENFSKKFLSVVTSKKPDLQSIKAELVKTVLESVRVKAGVVSSDEKEAGLRNLLNFGHTIGHAIEAVLTPEALHGECVSIGMIKEAELSRYLGILPPVAVARLSKCLVAYGLPVSIDDKEFLKKVGPKRHYVEIDILLKKMAIDKKNDGSKIRCVLLEKIGKCYQLKAHQVSKQDLSFVLT
notes: Aro1, Candida albicans, residues 1-387, 3-dehydroquinate synthase (DHQS) domain; Crystallised with NADH and ZnCl2; source: E. coli BL21(DE3) Gold, purified (Ni-NTA, TEV cleavage, second Ni-NTA); not shown: His6, N-terminal, cleaved
binding result [3]: binds

Source: paper PMC9074039, “Molecular analysis and essentiality of Aro1 shikimate biosynthesis multi-enzyme in Candida albicans” (Life Science Alliance, 2022)
